From patent publication US20200140815A1 (CRISPR THERAPEUTICS, published 2020)

Tests used:
murine PTK7 = molecular target: T1, murine PTK7 (murine, UniProt Q8BKG3 23-1062); assay: flow cytometry dose titration (200 nM-0.0032 nM) on murine 3T3L1 and M158 cells; secondary APC-conjugated human IgG-Fc antibody
T1 construct: whole, on cells; also called mouse antigen; PTK7 on murine 3T3L1 and M158 cells
T1 sequence (looked up): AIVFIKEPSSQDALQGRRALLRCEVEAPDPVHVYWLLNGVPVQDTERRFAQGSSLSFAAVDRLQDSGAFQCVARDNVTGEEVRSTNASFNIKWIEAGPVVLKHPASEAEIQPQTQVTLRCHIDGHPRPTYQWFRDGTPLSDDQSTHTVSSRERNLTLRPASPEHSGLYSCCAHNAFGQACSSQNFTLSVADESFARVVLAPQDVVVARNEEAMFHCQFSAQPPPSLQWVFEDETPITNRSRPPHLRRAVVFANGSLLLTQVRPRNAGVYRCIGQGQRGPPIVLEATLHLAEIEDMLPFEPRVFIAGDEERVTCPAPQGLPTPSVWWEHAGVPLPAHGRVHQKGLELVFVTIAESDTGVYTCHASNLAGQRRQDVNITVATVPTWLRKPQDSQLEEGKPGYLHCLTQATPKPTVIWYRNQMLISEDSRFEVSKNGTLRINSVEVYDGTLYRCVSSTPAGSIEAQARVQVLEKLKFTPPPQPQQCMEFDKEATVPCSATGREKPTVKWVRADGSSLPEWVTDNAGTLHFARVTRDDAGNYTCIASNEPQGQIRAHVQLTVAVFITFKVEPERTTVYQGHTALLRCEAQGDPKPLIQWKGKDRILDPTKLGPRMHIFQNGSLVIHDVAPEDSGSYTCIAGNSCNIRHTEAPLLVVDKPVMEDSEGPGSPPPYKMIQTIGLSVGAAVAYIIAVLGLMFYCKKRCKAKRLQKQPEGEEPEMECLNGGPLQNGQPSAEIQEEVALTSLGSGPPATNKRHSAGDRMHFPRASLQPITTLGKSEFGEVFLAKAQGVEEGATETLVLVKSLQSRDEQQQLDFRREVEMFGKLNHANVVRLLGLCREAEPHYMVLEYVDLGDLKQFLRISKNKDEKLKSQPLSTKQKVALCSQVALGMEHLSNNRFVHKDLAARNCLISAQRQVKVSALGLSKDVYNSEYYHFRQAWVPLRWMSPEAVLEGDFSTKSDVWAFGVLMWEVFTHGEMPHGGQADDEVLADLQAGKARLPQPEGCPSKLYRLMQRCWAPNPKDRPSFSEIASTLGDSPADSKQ
Procedure: (§1) To evaluate the species cross reactivity of the custom CTX181 antibody, its binding affinity was assessed in murine 3T3L1 fibroblast and murine M158 breast cancer cell lines and compared to its binding affinity in human Saos2 (osteosarcoma), A498 (renal carcinoma) and HCC70 (breast cancer) cell lines. For each cell line, a dose titration binding assay (200 nM-0.0032 nM final CTX181 antibody) was run on 2×10⁶ cells at each concentration. Cells were stained 30 min on ice with CTX181 antibody, followed by washing and 15 min stain at RT with secondary APC fluorophore conjugated human IgG-Fc antibody. Cells were assessed for staining on a Novocyte flow cytometer (Acea Biosciences).

[1] = molecular target: T2, human protein tyrosine kinase 7 (PTK7) (human, UniProt Q13308 31-1070); assay: flow cytometry dose titration (200 nM-0.0032 nM) on human Saos2, A498 and HCC70 cells; secondary APC-conjugated human IgG-Fc antibody
T2 construct: whole, on cells; also called humPTK7; colon carcinoma kinase 4 (CCK4)
T2 sequence (looked up): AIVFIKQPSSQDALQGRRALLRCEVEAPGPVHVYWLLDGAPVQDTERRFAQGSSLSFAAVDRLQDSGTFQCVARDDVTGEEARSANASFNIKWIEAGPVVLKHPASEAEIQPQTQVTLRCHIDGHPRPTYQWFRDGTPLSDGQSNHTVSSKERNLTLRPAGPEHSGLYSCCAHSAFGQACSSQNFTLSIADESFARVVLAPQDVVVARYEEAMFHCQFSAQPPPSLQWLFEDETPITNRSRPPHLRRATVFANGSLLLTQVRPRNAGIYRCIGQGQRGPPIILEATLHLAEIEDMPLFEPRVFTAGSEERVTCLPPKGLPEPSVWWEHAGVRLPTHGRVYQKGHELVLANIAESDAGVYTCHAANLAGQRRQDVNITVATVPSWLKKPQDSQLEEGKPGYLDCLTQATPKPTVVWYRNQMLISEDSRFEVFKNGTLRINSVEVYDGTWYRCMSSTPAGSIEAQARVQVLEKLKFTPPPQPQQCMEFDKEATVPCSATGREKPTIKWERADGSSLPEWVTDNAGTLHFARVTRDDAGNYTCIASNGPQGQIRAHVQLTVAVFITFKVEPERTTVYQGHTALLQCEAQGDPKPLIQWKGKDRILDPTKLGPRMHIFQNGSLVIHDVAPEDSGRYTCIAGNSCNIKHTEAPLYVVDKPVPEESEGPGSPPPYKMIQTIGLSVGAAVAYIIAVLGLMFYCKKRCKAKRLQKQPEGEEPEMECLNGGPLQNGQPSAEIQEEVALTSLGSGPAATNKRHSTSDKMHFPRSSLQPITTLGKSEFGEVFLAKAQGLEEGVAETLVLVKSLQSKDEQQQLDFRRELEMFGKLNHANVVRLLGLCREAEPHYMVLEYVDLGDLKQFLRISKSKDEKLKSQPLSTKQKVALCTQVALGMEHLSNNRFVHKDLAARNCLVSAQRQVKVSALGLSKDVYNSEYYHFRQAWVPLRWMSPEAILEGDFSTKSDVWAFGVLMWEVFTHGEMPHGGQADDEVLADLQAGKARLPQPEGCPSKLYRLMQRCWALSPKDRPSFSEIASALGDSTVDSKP
Procedure: as §1

binding result (murine PTK7): binds
B1: CTX181 mAb (custom recombinant monoclonal anti-PTK7 antibody, Creative Biolabs) (antibody, human IgG1, kappa, V domains shown)
VH: QVQLVESGGGVVQPGRSLRLSCAASGFTFSSYGMHWVRQAPGKGLEWVAVIWDDGSNKYYVDSVKGRFTISRDNSKNTLYLQMNSLRAEDTAVYYCARDDYYGSGSFNSYYGTDVWGQGTTVTVSS
VL: EIVLTQSPATLSLSPGERATLSCRASQSVSIYLAWYQQKPGQAPRLLIYDASNRATGIPARFSGSGSGTDFTLTISSLEPEDFAVYYCQQRSNWPPFTFGPGTKVDIKR
notes: Used biotinylated for immunohistochemistry; In flow cytometry it was detected with a secondary APC-conjugated human IgG-Fc antibody; also called CTX181 antibody; CTX181 Ab
binding result [1]: binds
